Measurements taken from patent publication US20240209107A1 (Sanofi, published 2024).

T1: human OX40 on the surface of cells (HEK293 cells expressing human OX40, jurkat cells engineered to express … (human, UniProt P43489 29-277))
T1 construct: whole, on cells; also called huOX40
T1 sequence (looked up): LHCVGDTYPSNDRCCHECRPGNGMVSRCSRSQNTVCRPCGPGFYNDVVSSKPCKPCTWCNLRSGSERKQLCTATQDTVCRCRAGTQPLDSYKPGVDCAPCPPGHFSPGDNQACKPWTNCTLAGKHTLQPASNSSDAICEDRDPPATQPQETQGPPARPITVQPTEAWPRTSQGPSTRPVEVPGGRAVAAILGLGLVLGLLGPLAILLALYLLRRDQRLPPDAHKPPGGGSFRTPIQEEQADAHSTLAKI

T2: human OX40 (10481-H08H, Sino Biological), recombinant (human, UniProt P43489 29-216)
T2 construct: Bought protein
T2 sequence (looked up): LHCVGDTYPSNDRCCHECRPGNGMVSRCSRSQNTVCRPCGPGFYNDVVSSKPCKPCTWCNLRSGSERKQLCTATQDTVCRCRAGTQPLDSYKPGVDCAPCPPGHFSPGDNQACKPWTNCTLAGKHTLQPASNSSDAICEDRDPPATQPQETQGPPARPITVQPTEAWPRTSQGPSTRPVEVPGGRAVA

T3: Human OX40 (amino acids 29-170 of human OX40) (human, UniProt P43489 29-170)
T3 construct: range 29-170
T3 sequence (looked up): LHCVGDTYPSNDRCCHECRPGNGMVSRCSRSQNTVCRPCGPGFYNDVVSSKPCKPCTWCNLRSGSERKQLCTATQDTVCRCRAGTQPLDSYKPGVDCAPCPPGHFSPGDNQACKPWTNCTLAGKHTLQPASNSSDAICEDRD


Legend:
[1] = target: T4, human FcRn (Immunitrack, ITF01-200) (human, UniProt P55899 24-297; P61769 21-119); assay: SPR (Biacore 8K), FcRn captured on CAP chip, bispecific as analyte, pH 6.0, steady state
T4 construct: captured on a Series S Sensor Chip CAP; also called recombinant human FcRN
T4 sequence (P55899 24-297 limits assumed, chain 1 of 2): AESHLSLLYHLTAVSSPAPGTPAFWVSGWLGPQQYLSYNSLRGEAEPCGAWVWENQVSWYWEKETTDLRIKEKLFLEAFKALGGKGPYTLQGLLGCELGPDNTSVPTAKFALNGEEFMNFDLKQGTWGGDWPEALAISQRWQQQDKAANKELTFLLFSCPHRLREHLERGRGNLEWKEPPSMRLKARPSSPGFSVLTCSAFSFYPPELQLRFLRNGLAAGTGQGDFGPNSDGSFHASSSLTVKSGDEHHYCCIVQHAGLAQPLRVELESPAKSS
T4 sequence (P61769 21-119 limits assumed, chain 2 of 2): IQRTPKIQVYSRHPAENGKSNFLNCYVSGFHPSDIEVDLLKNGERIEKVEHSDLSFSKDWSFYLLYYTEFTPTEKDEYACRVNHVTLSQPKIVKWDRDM

[2] = target: T1, human OX40 on the surface of cells …; assay: flow cytometry on HEK293 cells expressing human OX40; anti-human IgG Fc PE secondary; MFI
[3] = target: T5, human CD28 (CD28-3910H, Creative Bio Mart), recombinant (human, UniProt P10747 19-152); assay: SPR (Biacore 8K), bispecific captured by anti-human Fc, antigen as analyte, 1:1 model
T5 construct: Bought protein
T5 sequence (P10747 19-152 limits assumed): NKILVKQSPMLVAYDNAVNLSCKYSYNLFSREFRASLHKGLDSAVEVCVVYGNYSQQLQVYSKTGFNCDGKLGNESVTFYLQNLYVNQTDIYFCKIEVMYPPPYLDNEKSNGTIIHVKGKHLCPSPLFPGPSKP

[4] = target: T2, human OX40 (10481-H08H, Sino …); assay: as above
[5] = target: T6, cyno OX40 (internal production), recombinant (cynomolgus monkey); assay: as above
T6 construct: also called Cynomolgus Monkey OX40

[6] = target: T7, CD28-His (amino acids 19-136 of human CD28) (human, UniProt P10747 19-136); assay: complex formation, SEC, crystal structure
T7 construct: Expressed in Expi293 cells, purified by HisTrap and SEC; also called Human CD28 Amino acids 19-136; not shown: His tag

[7] = target: T3, Human OX40 (amino acids 29-170 of human …); assay: structure of the complex

| Binder | Kd [1] | EC50 (read off the curve) [2] | Kd [3] | Kd [4] | Kd [5] | binding result [6] | binding result [7] |
| --- | --- | --- | --- | --- | --- | --- | --- |
| bispecific antibody L4 (anti-CD28 VHH x anti-OX40 Fab, human IgG1 Fc) (bispecific antibody, Three chains: anti-OX40 light chain (I), anti-OX40 heavy chain (II), anti-CD28 VHH-Fc chain (III); also called lead candidate L4) light: not shown heavy: not shown DVQLVESGGGVVQPGGSLRLSCAASGFTFSSYYMSWVRQAPGKGLEWVSTINTDGDFTSYADSVKGRFTISRDNAKNTLYLQMNSLRPEDTALYYCARARGPYSRGSQGHDYRGQGTLVTVSSGGGGSDKTHTCPPCPAPEAAGGPSVFLFPPKPKDTLMISRTPEVTCVVVDVSHEDPEVKFNWYVDGVEVHNAKTKPREEQYNSTYRVVSVLTVLHQDWLNGKEYKCKVSNKALPAPIEKTISKAKGQPREPQVCTLPPSRDELTKNQVSLSCAVKGFYPSDIAVEWESNGQPENNYKTTPPVLDSDGSFFLVSKLTVDKSRWQQGNVFSCSVMHEALHNRFTQKSLSLSPG | 574 nM | ~1 nM | 11.9 nM | 4.1 nM | 3.7 nM | – | – |
| bispecific antibody L6 (anti-CD28 VHH x anti-OX40 Fab, human IgG1 Fc) (bispecific antibody, Three chains: anti-OX40 light chain (I), anti-OX40 heavy chain (II), anti-CD28 VHH-Fc chain (III); also called lead candidate L6) light: not shown heavy: not shown DVQLVESGGGVVQPGGSLRLSCAASGFTFSSYYMSWVRQAPGKGLEWVSTINTDGDFTSYADSVKGRFTISRDNAKNTLYLQMNSLRPEDTALYYCARARGPYSRGSQGHDYRGQGTLVTVSSGGGGSDKTHTCPPCPAPEAAGGPSVFLFPPKPKDTLMISRTPEVTCVVVDVSHEDPEVKFNWYVDGVEVHNAKTKPREEQYNSTYRVVSVLTVLHQDWLNGKEYKCKVSNKALPAPIEKTISKAKGQPREPQVCTLPPSRDELTKNQVSLSCAVKGFYPSDIAVEWESNGQPENNYKTTPPVLDSDGSFFLVSKLTVDKSRWQQGNVFSCSVMHEALHNRFTQKSLSLSPG | 745 nM | ~1 nM | 11.3 nM | 8.1 nM | 20 nM | – | – |
| bispecific antibody L5 (anti-CD28 VHH x anti-OX40 Fab, human IgG1 Fc) (bispecific antibody, Three chains: anti-OX40 light chain (I), anti-OX40 heavy chain (II), anti-CD28 VHH-Fc chain (III); also called lead candidate L5) light: not shown heavy: not shown DVQLVESGGGVVQPGGSLRLSCAASGFTFSSYYMSWVRQAPGKGLEWVSTINTDGDFTSYADSVKGRFTISRDNAKNTLYLQMNSLRPEDTALYYCARARGPYSRGSQGHDYRGQGTLVTVSSGGGGSDKTHTCPPCPAPEAAGGPSVFLFPPKPKDTLMISRTPEVTCVVVDVSHEDPEVKFNWYVDGVEVHNAKTKPREEQYNSTYRVVSVLTVLHQDWLNGKEYKCKVSNKALPAPIEKTISKAKGQPREPQVCTLPPSRDELTKNQVSLSCAVKGFYPSDIAVEWESNGQPENNYKTTPPVLDSDGSFFLVSKLTVDKSRWQQGNVFSCSVMHEALHNRFTQKSLSLSPG | 714 nM | ~1 nM | 9.99 nM | 6.1 nM | 3.3 nM | – | – |
| bispecific antibody L1 (anti-CD28 VHH x anti-OX40 Fab, human IgG1 Fc) (bispecific antibody, Three chains: anti-OX40 light chain (I), anti-OX40 heavy chain (II), anti-CD28 VHH-Fc chain (III); also called lead candidate L1) light: not shown heavy: not shown DVQLVESGGGVVQPGGSLRLSCAASGSFFSIDTMDWYRQAPGKQRELVTGVTSGGLTNYADSVKGRFTISIDNAKNTVYLQMNSLRPEDTALYYCSARIRTSGGGGWSTYWGQGTLVTVSSGGGGSDKTHTCPPCPAPEAAGGPSVFLFPPKPKDTLMISRTPEVTCVVVDVSHEDPEVKFNWYVDGVEVHNAKTKPREEQYNSTYRVVSVLTVLHQDWLNGKEYKCKVSNKALPAPIEKTISKAKGQPREPQVCTLPPSRDELTKNQVSLSCAVKGFYPSDIAVEWESNGQPENNYKTTPPVLDSDGSFFLVSKLTVDKSRWQQGNVFSCSVMHEALHNRFTQKSLSLSPG | 924 nM | ~0.7 nM | 3.6 nM | 4.3 nM | 2.9 nM | – | – |
| bispecific antibody L3 (anti-CD28 VHH x anti-OX40 Fab, human IgG1 Fc) (bispecific antibody, Three chains: anti-OX40 light chain (I), anti-OX40 heavy chain (II), anti-CD28 VHH-Fc chain (III); also called lead candidate L3) light: not shown heavy: not shown DVQLVESGGGVVQPGGSLRLSCAASGSFFSIDTMDWYRQAPGKQRELVTGVTSGGLTNYADSVKGRFTISIDNAKNTVYLQMNSLRPEDTALYYCSARIRTSGGGGWSTYWGQGTLVTVSSGGGGSDKTHTCPPCPAPEAAGGPSVFLFPPKPKDTLMISRTPEVTCVVVDVSHEDPEVKFNWYVDGVEVHNAKTKPREEQYNSTYRVVSVLTVLHQDWLNGKEYKCKVSNKALPAPIEKTISKAKGQPREPQVCTLPPSRDELTKNQVSLSCAVKGFYPSDIAVEWESNGQPENNYKTTPPVLDSDGSFFLVSKLTVDKSRWQQGNVFSCSVMHEALHNRFTQKSLSLSPG | 990 nM | ~1 nM | 3.3 nM | 8.1 nM | 15 nM | – | – |
| bispecific antibody L2 (anti-CD28 VHH x anti-OX40 Fab, human IgG1 Fc) (bispecific antibody, Three chains: anti-OX40 light chain (I), anti-OX40 heavy chain (II), anti-CD28 VHH-Fc chain (III); also called lead candidate L2) light: not shown heavy: not shown DVQLVESGGGVVQPGGSLRLSCAASGSFFSIDTMDWYRQAPGKQRELVTGVTSGGLTNYADSVKGRFTISIDNAKNTVYLQMNSLRPEDTALYYCSARIRTSGGGGWSTYWGQGTLVTVSSGGGGSDKTHTCPPCPAPEAAGGPSVFLFPPKPKDTLMISRTPEVTCVVVDVSHEDPEVKFNWYVDGVEVHNAKTKPREEQYNSTYRVVSVLTVLHQDWLNGKEYKCKVSNKALPAPIEKTISKAKGQPREPQVCTLPPSRDELTKNQVSLSCAVKGFYPSDIAVEWESNGQPENNYKTTPPVLDSDGSFFLVSKLTVDKSRWQQGNVFSCSVMHEALHNRFTQKSLSLSPG | 988 nM | ~1 nM | 3.23 nM | 6.9 nM | 4 nM | – | – |
| L4 & L6 & L5 CD28 arm VHH (VHH-His) (VHH, Used as VHH-His in the crystal structure with CD28-His; also called L4, L6 & L5 CD28 VHH; not shown: His tag) VHH: DVQLVESGGGVVQPGGSLRLSCAASGFTFSSYYMSWVRQAPGKGLEWVSTINTDGDFTSYADSVKGRFTISRDNAKNTLYLQMNSLRPEDTALYYCARARGPYSRGSQGHDYRGQGTLVTVSS | – | – | – | – | – | binds | – |
| prototype OX40 arm Fab (Fab, V domains shown, Fab of the OX40 arm of the bispecific CD28-OX40 prototype; also called prototype arm) VH: EVQLVESGGVVVQPGGSLRLSCAASGFTFDDYTMHWVRQAPGKGLEWVSLISWDGGSTYYADSVKGRFTISRDNSKNSLYLQMNSLRTEDTAVYYCARDNLWGYLTYFDYWGQGTLVTVSS VL: QSVLTQPPSVSAAPGQKVTISCSGSSSNIGNNYVSWYQQLPGTAPKLLIYDNNKRPSGIPDRFSGSKSGTSATLGITGLQTGDEADYYCGTWDSSLTAYVFGGGTKLTVL | – | – | – | – | – | – | binds |
